Read-outs that look alike come from different tables or passages of the source.
Tests used:
[1] = biological target: wild-type TIM (Homo sapiens, UniProt P60174); details: cited from earlier work
[2] = biological target: NovoTim1.0; type: biochemical
[3] = read-out: DHAP → GAP KM; cited from earlier work
[4] = read-out: KM (μM), second group; cited from earlier work
[5] = type: physicochemical; details: pH 7
[6] = type: binding; details: read-out: K1 (μM) D-lac
[7] = type: binding; details: read-out: K1 (μM) L-lac
[8] = type: binding; details: read-out: K1 (μM) Pyr
[9] = read-out: affinities of wild-type receptors for cognate ligands; cited from earlier work

Sequence of wild-type TIM (P60174 whole entry): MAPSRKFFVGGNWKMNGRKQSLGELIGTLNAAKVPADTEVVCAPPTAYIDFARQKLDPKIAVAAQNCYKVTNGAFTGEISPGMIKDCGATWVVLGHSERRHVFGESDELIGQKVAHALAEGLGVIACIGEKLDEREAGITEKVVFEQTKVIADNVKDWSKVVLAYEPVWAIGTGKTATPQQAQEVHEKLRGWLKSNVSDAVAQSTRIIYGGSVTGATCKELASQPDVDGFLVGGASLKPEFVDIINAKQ

Molecule | Tm [5] | Kd [6] | Kd [7] | Kd [8] | also measured
O=C(O)COP(=O)(O)O [phosphoglycolate] |  |  |  |  | Ki [1]: 4 µM; Ki [2]: 130 µM
triose phosphate isomerase [wtTIM] |  |  |  |  | Km [3]: 1600 µM; Km [4]: 390 µM
histidine-binding protein (protein, UniProt P0AEU0 23-260, looked up) Histidine-binding periplasmic …: AIPQNIRIGTDPTYAPFESKNSQGELVGFDIDLAKELCKRINTQCTFVENPLDALIPSLKAKKIDAIMSSLSITEKRQQEIAFTDKLYAADSRLVVAKNSDIQPTVESLKGKRVGVLQGTTQETFGNEHWAPKGIEIVSYQGQDNIYSDLTAGRIDAAFQDEVAASEGFLKQPVGKDYKFGGPSVKDEKLFGVGTGMGLRKEDNELREALNKAFAEMRADGTYEKLAKKYFDFDVYGG | 58 °C |  |  |  | 
arabinose-binding protein (protein, UniProt P02924 24-329, looked up) L-arabinose-binding …: ENLKLGFLVKQPEEPWFQTEWKFADKAGKDLGFEVIKIAVPDGEKTLNAIDSLAASGAKGFVICTPDPKLGSAIVAKARGYDMKVIAVDDQFVNAKGKPMDTVPLVMMAATKIGERQGQELYKEMQKRGWDVKESAVMAITANELDTARRRTTGSMDALKAAGFPEKQIYQVPTKSNDIPGAFDAANSMLVQHPEVKHWLIVGMNDSTVLGGVRATEGQGFKAADIIGIGINGVDAVSELSKAQATGFYGSLLPSPDVHGYKSSEMLYNWVAKDVEPPKFTEVTDVVLITRDNFKEELEKKGLGGK | 54 °C |  |  |  | 
glutamine-binding protein (protein, UniProt P0AEQ3 23-248, looked up) Glutamine-binding periplasmic …: ADKKLVVATDTAFVPFEFKQGDKYVGFDVDLWAAIAKELKLDYELKPMDFSGIIPALQTKNVDLALAGITITDERKKAIDFSDGYYKSGLLVMVKANNNDVKSVKDLDGKVVAVKSGTGSVDYAKANIKTKDLRQFPNIDNAYMELGTNRADAVLHDTPNILYFIKTAGNGQFKAVGDSLEAQQYGIAFPKGSDELRDKVNGALKTLRENGTYNEIYKKWFGTEPK | 62 °C |  |  |  | 
Lac.G2: GBP variant designed to bind L-lactate (protein) ADTRIGVTIKKYDMNKMSVVRKAIEQDAKAAPDVQLLMNDSQNDQSKQNDQIDVLLAKGVKALAINLVDPAAAGTVIEKARGQNVPVVFFKLEPSRKALDSYDKAYYVGTDSKESGIIQGDLIAKHWAANQGWDLNKDGQIQFVLLKGEPGKPKAEAMTTYVIKELNDKGIKTEQLQLDTAMKDTAQAKDKMDAWLSGPNANKIEVVIANNDAMAMGAVEALKAHNKSSIPVFGVAALPEALALVKSGALAGTVLSDANNQAKATFDLAKNLADGKGAADGTNWKIDNKVVRVPYVGVDKDNLAEFSKK | 50 °C | 55 µM | 2.1 µM | 115 µM | 
ribose-binding protein (protein) KDTIALVVSTLNNPFFVSLKDGAQKEADKLGYNLVVLDSQNNPAKELANVQDLTVRGTKILLINPTDSDAVGNAVKMANQANIPVITLDRQATKGEVVSHIASDNVLGGKIAGDYIAKKAGEGAKVIELQGIAGTSAARERGEGFQQAVAAHKFNVLASQPADFDRIKGLNVMQNLLTAHPDVQAVFAQNDEMALGALRALQTAGKSDVMVVGFDGTPDGEKAVNDGKLAATIAQLPDQIGAKGVETADKVLKGEKVQAKYPVDLKLVVKQ | 58 °C |  |  |  | Kd [9]: 0.2 µM
Lac.G1 (protein) ADTRIGVTIKKYDKNFMSVVRKAIEQDAKAAPDVQLLMNDSQNDQSKQNDQIDVLLAKGVKALAINLVDPAAAGTVIEKARGQNVPVVFFKLEPSRKALDSYDKAYYVGTDSKESGIIQGDLIAKHWAANQGWDLNKDGQIQFVLLKGEPGMPHAEAKTTYVIKELNDKGIKTEQLQLDTAMKDTAQAKDKMDAWLSGPNANKIEVVIANNDAMAMGAVEALKAHNKSSIPVFGVAALPEALALVKSGALAGTVLDDANNQAKATFDLAKNLADGKGAADGTNWKIDNKVVRVPYVGVDKDNLAEFSKK |  | 205 µM | 2.8 µM | 255 µM | 
Lac.R1: RBP variant designed to bind L-lactate (protein) KDTIALVVSTLNVPARVSLKDGAQKEADKLGYNLVVLDSQNNPAKELANVQDLTVRGTKILLINPTDSDAVGNAVKMANQANIPVITLSSQATKGEVVSHIASDNVLGGKIAGDYIAKKAGEGAKVIELQGIAGTSKAREMGEGFQQAVAAHKFNVLASQPADKDRIKGLNVMQNLLTAHPDVQAVFAQIDEMALGALRALQTAGKSDVMVVGFSGTPDGEKAVNDGKLAATIATLPDQIGAKGVETADKVLKGEKVQAKYPVDLKLVVKQ |  | 40 µM | 7.4 µM | 40 µM | 

Source: patent US20040229290A1 (priority 2003, published 2004)
